# Reference: PMC12463876, “AI-assisted design of ligands for lipocalin-2” (Frontiers in Immunology, 2025)
# B1: MinP-2 (designed binder)
# chain: MSKATVYDVSTGKTYEVSLEDAKKLASYAVYEGGYPLRISVAPEDTKAILDAIKNTSKEKAEEGKKLLEELN
# notes: de novo miniprotein (RFdiffusion, ProteinMPNN) designed against LCN2; Cloned into pET30b with a Twin-Strep tag; also called MiniP-2; source: E. coli BL21 (DE3) pLysS, purified (Strep-Tactin XT magnetic beads, dialysis)
# Target: T1, Recombinant human lipocalin-2 (LCN2) (human, UniProt P80188 21-198)
# T1 construct: Lipocalin-2 (LCN2), human, recombinant; neither is said to be the construct used; also called neutrophil gelatinase-associated lipocalin; siderocalin; source: produced and purified by GenScript
# Assay: SPR; MinP-2 immobilised by amine coupling on a CM5 chip (Biacore 8K); LCN2 injected at 7.8, 15.6, 31.2, 62.5 and 125 nM, 30 uL/min, contact 120 s, dissociation 600 s; 25 °C; 1:1 model
# Details: both partners purified
# T1 sequence (P80188 21-198): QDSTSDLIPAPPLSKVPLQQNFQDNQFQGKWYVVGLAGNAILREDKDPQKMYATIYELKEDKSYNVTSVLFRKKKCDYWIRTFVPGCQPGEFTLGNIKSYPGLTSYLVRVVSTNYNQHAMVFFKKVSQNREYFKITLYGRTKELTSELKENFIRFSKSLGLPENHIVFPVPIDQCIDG
binder,measurement,value
B1,Kd,4.2 nM
